In PMC9506655, “Comparative structural insight into the unidirectional catalysis of ornithine carbamoyltransferases from Psychrobacter sp. PAMC 21119” (PLoS ONE, 2022):

Columns and labels:
[1] = molecular target: T1, Ps_cOTC (Psychrobacter sp. PAMC 21119, UniProt Z9QBN3KKL3); assay: label-free thermal shift (Tycho NT.[…], intrinsic fluorescence); type: binding; details: apo Tm 71.9 ± 0.0 °C; up to 50 mM CP; 20 mM Tris-HCl pH 8.0; 15 min incubation at 295 K
T1 construct: full-length arcB product, N-terminal His6 (pET-28a NdeI) kept; expressed in E. coli BL21(DE3); homotrimer in solution
T1 sequence (Z9QBN3KKL3 1-336): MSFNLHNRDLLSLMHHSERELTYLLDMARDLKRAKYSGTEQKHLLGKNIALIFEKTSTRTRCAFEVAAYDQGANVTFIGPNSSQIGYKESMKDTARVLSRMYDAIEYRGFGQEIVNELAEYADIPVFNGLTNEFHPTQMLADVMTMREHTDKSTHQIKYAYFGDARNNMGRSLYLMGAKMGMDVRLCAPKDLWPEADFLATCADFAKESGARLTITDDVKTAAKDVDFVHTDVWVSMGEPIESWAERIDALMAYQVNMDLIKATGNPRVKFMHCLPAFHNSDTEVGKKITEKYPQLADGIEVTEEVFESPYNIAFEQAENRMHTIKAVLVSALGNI

[2] = molecular target: T2, Ps_aOTC (Psychrobacter sp. PAMC 21119, UniProt A0ACD6BAY5); assay: as above; type: binding; details: apo Tm 53.7 ± 0.4 °C; saturating at 20 mM CP; 20 mM Tris-HCl pH 8.0; 15 min incubation at 295 K
T2 construct: full-length argF product, N-terminal His6 (pET-28a) kept; expressed in E. coli BL21(DE3); homotrimer in solution

[3] = molecular target: T1, Ps_cOTC; assay: as above; type: binding; details: with 50 mM CP (no shift by NVA alone); 20 mM Tris-HCl pH 8.0; 15 min incubation at 295 K
[4] = molecular target: T2, Ps_aOTC; assay: as above; type: binding; details: with 5 mM CP (no shift by NVA alone); 20 mM Tris-HCl pH 8.0; 15 min incubation at 295 K
[5] = molecular target: anabolic ornithine carbamoyltransferase from Psychrobacter sp. PAMC 21119 (Psychrobacter sp. PAMC 21119); assay: AUC; sedimentation velocity, 20 mM Tris-HCl pH 8.0, 200 mM NaCl, 20°C, 42,000 RPM, SEDFIT
[6] = molecular target: anabolic ornithine carbamoyltransferase from Psychrobacter sp. PAMC 21119 (Psychrobacter sp. PAMC 21119); assay: SEC; Superdex 200 10/300 GL, 20 mM Tris-HCl pH 8.0, NaCl 300, 500 and 1,000 mM, protein 1 mg/mL, column calibrated with standards
[7] = molecular target: anabolic ornithine carbamoyltransferase from Psychrobacter sp. PAMC 21119 (Psychrobacter sp. PAMC 21119); assay: crystal structure; X-ray, molecular replacement; Ps_cOTC at 2.6 Å (0.1 M Tris-HCl pH 8.1, 1.3 M lithium sulfate), Ps_aOTC at 2.2 Å (0.1 M sodium acetate:HCl pH 4.6, 1 M ammonium citrate dibasic)
[8] = molecular target: catabolic ornithine carbamoyltransferase from Psychrobacter sp. PAMC 21119 (Psychrobacter sp. PAMC 21119); assay: AUC; sedimentation velocity, 20 mM Tris-HCl pH 8.0, 200 mM NaCl, 20°C, 42,000 RPM, SEDFIT
[9] = molecular target: catabolic ornithine carbamoyltransferase from Psychrobacter sp. PAMC 21119 (Psychrobacter sp. PAMC 21119); assay: SEC; Superdex 200 10/300 GL, 20 mM Tris-HCl pH 8.0, NaCl 300, 500 and 1,000 mM, protein 1 mg/mL, column calibrated with standards
[10] = molecular target: catabolic ornithine carbamoyltransferase from Psychrobacter sp. PAMC 21119 (Psychrobacter sp. PAMC 21119); assay: crystal structure; X-ray, molecular replacement; Ps_cOTC at 2.6 Å (0.1 M Tris-HCl pH 8.1, 1.3 M lithium sulfate), Ps_aOTC at 2.2 Å (0.1 M sodium acetate:HCl pH 4.6, 1 M ammonium citrate dibasic)

T2 sequence (A0ACD6BAY5 entry or part of it): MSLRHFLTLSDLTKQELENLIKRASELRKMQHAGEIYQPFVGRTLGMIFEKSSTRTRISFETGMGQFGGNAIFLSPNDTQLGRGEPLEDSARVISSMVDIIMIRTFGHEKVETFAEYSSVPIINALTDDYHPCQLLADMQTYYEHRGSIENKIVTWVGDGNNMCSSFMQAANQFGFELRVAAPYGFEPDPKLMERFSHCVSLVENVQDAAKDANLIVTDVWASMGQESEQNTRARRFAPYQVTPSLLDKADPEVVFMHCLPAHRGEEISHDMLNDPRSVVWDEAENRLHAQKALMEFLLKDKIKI

Q: Which ΔT [1] does the source give for `NC(=O)OP(=O)(O)O` [CP, carbamoyl phosphate] here?
A: Its ΔT is 1.3 °C.

Q: And the ΔT [2]?
A: The ΔT was 6.5 °C.

Q: For `CCC[C@H](N)C(=O)O` [NVA, l-norvaline], which thermal shift [3] is on record?
A: The thermal shift was “following CP binding, NVA can bind to Ps_cOTC and Ps_aOTC”.

Q: And the thermal shift [4]?
A: The thermal shift was “following CP binding, NVA can bind to Ps_cOTC and Ps_aOTC”.

Q: Which results are given for “anabolic ornithine carbamoyltransferase from Psychrobacter sp. PAMC 21119 (enzyme)”?
A: stoichiometry N [5]: 3; stoichiometry N [6]: 3; stoichiometry N [7]: 3

Q: Which stoichiometry N [8] does the source give for “catabolic ornithine carbamoyltransferase from Psychrobacter sp. PAMC 21119 (enzyme)” here?
A: The stoichiometry N was 3.

Q: And the stoichiometry N [9]?
A: Its stoichiometry N is 3.

Q: What about the stoichiometry N [10] of the same compound?
A: The stoichiometry N was 3.
